The assay addresses T1, SND1 recombinant protein (Origene, TP300059) (human, UniProt Q7KZF4 1-910, site-specific cysteine labeling with the RED-MALEIMIDE 2nd Generation kit (fluorescent dye)).
T1 chain: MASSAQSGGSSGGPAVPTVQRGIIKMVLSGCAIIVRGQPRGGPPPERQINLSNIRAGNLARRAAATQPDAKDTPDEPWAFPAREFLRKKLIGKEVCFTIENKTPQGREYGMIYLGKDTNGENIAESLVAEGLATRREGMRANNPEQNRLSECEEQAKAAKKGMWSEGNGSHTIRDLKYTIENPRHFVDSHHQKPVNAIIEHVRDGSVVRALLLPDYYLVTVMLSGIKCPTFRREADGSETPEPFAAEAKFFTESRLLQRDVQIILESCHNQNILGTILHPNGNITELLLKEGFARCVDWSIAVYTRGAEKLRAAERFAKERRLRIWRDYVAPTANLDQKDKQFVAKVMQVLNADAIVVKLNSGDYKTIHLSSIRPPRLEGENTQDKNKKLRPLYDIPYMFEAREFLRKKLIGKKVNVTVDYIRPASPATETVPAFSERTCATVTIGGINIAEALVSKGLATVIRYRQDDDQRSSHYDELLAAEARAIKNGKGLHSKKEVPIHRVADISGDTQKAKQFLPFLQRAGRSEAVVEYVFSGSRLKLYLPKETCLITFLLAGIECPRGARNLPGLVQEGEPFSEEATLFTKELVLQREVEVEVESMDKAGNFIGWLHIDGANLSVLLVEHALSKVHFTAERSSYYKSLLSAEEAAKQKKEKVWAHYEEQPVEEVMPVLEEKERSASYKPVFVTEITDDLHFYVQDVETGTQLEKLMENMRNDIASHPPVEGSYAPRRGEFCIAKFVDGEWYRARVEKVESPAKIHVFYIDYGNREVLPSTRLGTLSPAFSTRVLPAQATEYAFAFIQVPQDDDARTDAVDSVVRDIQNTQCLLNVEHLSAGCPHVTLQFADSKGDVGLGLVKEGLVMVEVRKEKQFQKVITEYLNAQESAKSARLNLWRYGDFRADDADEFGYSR
Put plainly: MST.

B1: NSP9 recombinant protein (Abcam, ab289608) (natural protein)
chain: NNELSPVALRQMSCAAGTTQTACTDDNALAYYNTTKGGRFVLALLSDLQDLKWARFPKSDGTGTIYTELEPPCRFVTDTPKGPKVKYLYFIKGLNNLNRGMVLGSLAATVRLQ
Broadly, the Kd is the equilibrium constant for the complex coming apart. On to B1, for which the Kd is 8.8 µM.

These data come from article PMC10617981 (2023).
